We go through four molecules from US20260139033A1 (PRANA THERAPIES, published 2026).

Assay [1] has as its target T1, recombinant human TSLP (human, UniProt Q969D9 29-159).
T1 construct: also called thymic stromal lymphopoietin
Description: SPR (Biacore 3000, CM5 chip, 25 C): complex captured via protein A, TSLP as analyte, 1:1 fit; column 'TSLP binding(pM)'. The protocol: (§1) SPR studies were carried out on a Biacore 3000 instrument with a CM5 chip at 25° C. The running buffer comprised 25 mM Hepes, pH 7.5, 150 mM NaCl, 0.5 mg/ml BSA, 0.005% P20. Antibodies were captured via protein A using approximately a 1/50 dilution of each antibody in the running buffer and a 2-minute contact time at a 10 μl/min flow rate. Protein A was immobilized on a CM5 chip via standard amine coupling chemistry in 10 mM acetate pH 4.5. Approximately 800 RU of each antibody was captured. The surfaces were regenerated via a 10 mM glycine pH 1.5 between cycles. Between assays the chip was regenerated with a 2-minute pulse of 100 mM Phosphoric acid. Prior to setting up multicycle kinetic analysis analyte concentration was determined spectrophotometrically using an extinction coefficient of 72,880 M⁻¹ cm⁻¹ for IL4R and 18450 M⁻¹ cm⁻¹ for the TSLP proteins respectively. Analyte samples were prepared by diluting stocks into running buffer to a final concentration of 500 nM for the IL-4R and 25 nM for TSLP followed by serially diluting with a 2-fold series with an association time of 2.5 minutes at a 50 μl/min flow rate. Dissociation data was collected for a period of 1600 seconds. Raw data was analyzed using the Scrubber2 (Biologic Software, AU) program using a double referencing procedure where compound signal is corrected to a blank surface and a buffer injection over the captured antibody surface. Kinetic data was analyzed by fitting to a simple 1:1 binding model. […] The candidates are further described in Table 3.
For orientation: Surface plasmon resonance follows binding to a sensor surface in real time, without labels.

Assay [2] concerns the target T1, recombinant human TSLP. Put plainly: SPR; column 'SPR (Biophysical binding): TSLP (pM)'. As to the method: as §1
For assay [3], the target named is IL-4R on human donor PBMC (B-cells) (human, UniProt P24394 26-825). Description: cell-based or functional assay.
Assay [4] addresses T1, recombinant human TSLP. Put plainly: cell-based or functional assay.

B1: Candidate-25 (TRAP-2) (bispecific antibody, human IgG4 S228P, kappa)
heavy chain: EVQLVESGGGLEQPGGSLRLSCAGSGFTFRDYAMTWVRQAPGKGLEWVSSISGSGGNTYYADSVKGRFTISRDNSKNTLYLQMNSLRAEDTAVYYCAKDRLSITIRPRYYGLDVWGQGTTVTVSSASTKGPSVFPLAPCSRSTSESTAALGCLVKDYFPEPVTVSWNSGALTSGVHTFPAVLQSSGLYSLSSVVTVPSSSLGTKTYTCNVDHKPSNTKVDKRVESKYGPPCPPCPAPEFLGGPSVFLFPPKPKDTLYITREPEVTCVVVDVSQEDPEVQFNWYVDGVEVHNAKTKPREEQFNSTYRVVSVLTVLHQDWLNGKEYKCKVSNKGLPSSIEKTISKAKGQPREPQVYTLPPSQEEMTKNQVSLTCLVKGFYPSDIAVEWESNGQPENNYKTTPPVLDSDGSFFLYSRLTVDKSRWQEGNVFSCSVMHEALHNHYTQKSLSLSLG
light chain with N-terminal TSLP TRAP 2 (TSLP-TRAP, first linker, dupilumab-YTE light chain): ESGYAQNGDLEDAELDDYSFSCYSQLEVNGSQHSLTCAFEDPDVNITNLEFEICGALVEVKCLNFRKLQEIYFIETKKFLLIGKSNICVKVGEKSLTCKKIDLTTIVKPEAPFDLSVVYREGANDFVVTFNTSHLQKKYVKVLMHDVAYRQEKDENKWTHVNLSSTKLTLLQRKLQPAAMYEIKVRSIPDHYFKGFWSEWSPSYYFRTPEINNSSGEMDGGSGGSGGSGGSGGSGGSGGSGGSGGSGGSGGSGGSGGSGGSGGSGGSGGSGGSGGSGGSGAAEGVQIQIIYFNLETVQVTWNASKYSRTNLTFHYRFNGDEAYDQCTNYLLQEGHTSGCLLDAEQRDDILYFSIRNGTHPVFTASRWMVYYLKPSSPKHVRFSWHQDAVTVTCSDLSYGDLLYEVQYRSPFDTEWQSKQENTCNVTIEGLDAEKCYSFWVRVKAMEDVYGPDTYPSDWSEVTCWQRGEIRDACAETPTPPKPKLSKGGGGSGGGGSGGGGSGGGGSDIVMTQSPLSLPVTPGEPASISCRSSQSLLYSIGYNYLDWYLQKSGQSPQLLIYLGSNRASGVPDRFSGSGSGTDFTLKISRVEAEDVGFYYCMQALQTPYTFGQGTKLEIKRTVAAPSVFIFPPSDEQLKSGTASVVCLLNNFYPREAKVQWKVDNALQSGNSQESVTEQDSKDSTYSLSSTLTLSKADYEKHKVYACEVTHQGLSSPVTKSFNRGEC
notes: also called Light chain N-terminal TRAP: TSLP TRAP 2_Linker-GS4_Dupilumab-YTE [2 x TRAP 2]
A word on the Kd: it is the constant that tells how readily two partners part at equilibrium. On to B1, for which the Kd in assay [1] was 0.0166 nM.

B2: Candidate-23: Dupilumab-YTE_Linker-GS4_TSLP TRAP 1 (bispecific antibody, human IgG4 S228P, kappa)
heavy: EVQLVESGGGLEQPGGSLRLSCAGSGFTFRDYAMTWVRQAPGKGLEWVSSISGSGGNTYYADSVKGRFTISRDNSKNTLYLQMNSLRAEDTAVYYCAKDRLSITIRPRYYGLDVWGQGTTVTVSSASTKGPSVFPLAPCSRSTSESTAALGCLVKDYFPEPVTVSWNSGALTSGVHTFPAVLQSSGLYSLSSVVTVPSSSLGTKTYTCNVDHKPSNTKVDKRVESKYGPPCPPCPAPEFLGGPSVFLFPPKPKDTLYITREPEVTCVVVDVSQEDPEVQFNWYVDGVEVHNAKTKPREEQFNSTYRVVSVLTVLHQDWLNGKEYKCKVSNKGLPSSIEKTISKAKGQPREPQVYTLPPSQEEMTKNQVSLTCLVKGFYPSDIAVEWESNGQPENNYKTTPPVLDSDGSFFLYSRLTVDKSRWQEGNVFSCSVMHEALHNHYTQKSLSLSLGGGGGSGGGGSGGGGSGGGGSGAAEGVQIQIIYFNLETVQVTWNASKYSRTNLTFHYRFNGDEAYDQCTNYLLQEGHTSGCLLDAEQRDDILYFSIRNGTHPVFTASRWMVYYLKPSSPKHVRFSWHQDAVTVTCSDLSYGDLLYEVQYRSPFDTEWQSKQENTCNVTIEGLDAEKCYSFWVRVKAMEDVYGPDTYPSDWSEVTCWQRGEIRDACAETPTPPKPKLSKGGSGGSGGSGGSGGSGGSGGSGGSGGSGGSGGSGGSGGSGGSGGSGGSGGSGGSGGSGGSESGYAQNGDLEDAELDDYSFSCYSQLEVNGSQHSLTCAFEDPDVNITNLEFEICGALVEVKCLNFRKLQEIYFIETKKFLLIGKSNICVKVGEKSLTCKKIDLTTIVKPEAPFDLSVVYREGANDFVVTFNTSHLQKKYVKVLMHDVAYRQEKDENKWTHVNLSSTKLTLLQRKLQPAAMYEIKVRSIPDHYFKGFWSEWSPSYYFRTPEINNSSGEMD
light: DIVMTQSPLSLPVTPGEPASISCRSSQSLLYSIGYNYLDWYLQKSGQSPQLLIYLGSNRASGVPDRFSGSGSGTDFTLKISRVEAEDVGFYYCMQALQTPYTFGQGTKLEIKRTVAAPSVFIFPPSDEQLKSGTASVVCLLNNFYPREAKVQWKVDNALQSGNSQESVTEQDSKDSTYSLSSTLTLSKADYEKHKVYACEVTHQGLSSPVTKSFNRGEC
notes: The chains here are built from the component entries; TRAP sits at the C-terminus of the heavy chain
On to B2, for which the Kd in assay [2] and in assay [1] was 0.0259 nM in each case. Moreover, the “IC50, upregulation of CD23 in response to IL-4 in PBMCs” value in assay [3] is 17.1 nM. In assay [4], the “IC50, TARC secretion in response to TSLP in PBMCs” value stood at 1.7 nM.

B3: Candidate-5 (TRAP-2) (other)
heavy chain with C-terminal TSLP TRAP 2 (palivizumab-YTE heavy chain, first linker, TSLP-TRAP): QVTLRESGPALVKPTQTLTLTCTFSGFSLSTSGMSVGWIRQPPGKALEWLADIWWDDKKDYNPSLKSRLTISKDTSANQVVLKVTNMDPADTATYYCARSMITNWYFDVWGAGTTVTVSSASTKGPSVFPLAPCSRSTSESTAALGCLVKDYFPEPVTVSWNSGALTSGVHTFPAVLQSSGLYSLSSVVTVPSSSLGTKTYTCNVDHKPSNTKVDKRVESKYGPPCPPCPAPEFLGGPSVFLFPPKPKDTLYITREPEVTCVVVDVSQEDPEVQFNWYVDGVEVHNAKTKPREEQFNSTYRVVSVLTVLHQDWLNGKEYKCKVSNKGLPSSIEKTISKAKGQPREPQVYTLPPSQEEMTKNQVSLTCLVKGFYPSDIAVEWESNGQPENNYKTTPPVLDSDGSFFLYSRLTVDKSRWQEGNVFSCSVMHEALHNHYTQKSLSLSLGGGGGSGGGGSGGGGSGGGGSESGYAQNGDLEDAELDDYSFSCYSQLEVNGSQHSLTCAFEDPDVNITNLEFEICGALVEVKCLNFRKLQEIYFIETKKFLLIGKSNICVKVGEKSLTCKKIDLTTIVKPEAPFDLSVVYREGANDFVVTFNTSHLQKKYVKVLMHDVAYRQEKDENKWTHVNLSSTKLTLLQRKLQPAAMYEIKVRSIPDHYFKGFWSEWSPSYYFRTPEINNSSGEMDGGSGGSGGSGGSGGSGGSGGSGGSGGSGGSGGSGGSGGSGGSGGSGGSGGSGGSGGSGGSGAAEGVQIQIIYFNLETVQVTWNASKYSRTNLTFHYRFNGDEAYDQCTNYLLQEGHTSGCLLDAEQRDDILYFSIRNGTHPVFTASRWMVYYLKPSSPKHVRFSWHQDAVTVTCSDLSYGDLLYEVQYRSPFDTEWQSKQENTCNVTIEGLDAEKCYSFWVRVKAMEDVYGPDTYPSDWSEVTCWQRGEIRDACAETPTPPKPKLSK
light chain: DIQMTQSPSTLSASVGDRVTITCKCQLSVGYMHWYQQKPGKAPKLLIYDTSKLASGVPSRFSGSGSGTAFTLTISSLQPDDFATYYCFQGSGYPFTFGGGTKLEIKRTVAAPSVFIFPPSDEQLKSGTASVVCLLNNFYPREAKVQWKVDNALQSGNSQESVTEQDSKDSTYSLSSTLTLSKADYEKHKVYACEVTHQGLSSPVTKSFNRGEC
notes: Monospecific TSLP-TRAP complex on palivizumab (human IgG4 S228P, YTE)
For the molecule B3, the Kd in assay [1] stood at 0.0013 nM.

B4: dupilumab (antibody, V domains shown)
VH: EVQLVESGGGLEQPGGSLRLSCAGSGFTFRDYAMTWVRQAPGKGLEWVSSISGSGGNTYYADSVKGRFTISRDNSKNTLYLQMNSLRAEDTAVYYCAKDRLSITIRPRYYGLDVWGQGTTVTVS
VL: DIVMTQSPLSLPVTPGEPASISCRSSQSLLYSIGYNYLDWYLQKSGQSPQLLIYLGSNRASGVPDRFSGSGSGTDFTLKISRVEAEDVGFYYCMQALQTPYTFGQGTKLEIK
B4: in assay [3], the “IC50, IL-4 biological assay (CD23 upregulation in PBMCs)” value came to 4.7 nM.
